In US10106577B2, “Agonists of neurotrophin receptors and their use as medicaments” (BIONURE FARMA, S.L., priority 2010, dated 2018):

Legend:
SH-SY5Y cells = assay: Parkinson's disease in vitro model (MPTP stress, MTT); format: cell-based, human; details: MPTP 100 μM, 24 hrs; pre-treated 3 hours; BDNF 20 ng/ml
Description: The human neuroblastoma cell line SH-SY5Y was maintained in culture with 50% Ham's F12 medium and 50% EMEM medium, supplemented with 10% FBS, […] L-glutamine and 1% penicillin/streptomycin. The cell culture was maintained in a humidified atmosphere of 95% air and CO2 at 37° C.
The SH-SY5Y cells after differentiation to neuronal phenotype with retinoic acid, were pre-treated for 3 hours with the test compounds at different concentrations (20 ng/ml, 100 ng/ml, 2 μg/ml, 20 μg/ml and 50 μg/ml) or BDNF (20 ng/ml) as a positive control. Then 1-methyl-4-phenyl-1,2,3,6-tetrahydropyridine (MPTP) (100 μM) was added and incubated for 24 hrs. The number of surviving cells was determined the day after by 3-(4,5-dimethylthiazol-2-yl)-2,5-diphenyltetrazolium bromide (MTT) assay.

ATF-2 = assay: Luminex signalling assay in SH-SY5Y; format: cell-based, human; details: G79 100 ng/ml and 20 μg/ml, BDNF 20 ng/ml; 30 min, 1 h, 2 h, 6 h
From the text: (§1) The human neuroblastoma cell line SH-SY5Y was used to perform Luminex signalling assays using the 10-Plex MAPK/SAPK Signaling Kit-Phosphoprotein (Millipore). This cell line expresses the TrkB receptor and the MAPK/SAPK signalling pathway is typically activated by the tyrosinkinase receptors. The phosphoprotein antibodies included into the kit are the following: ERK/MAP kinase (Thr185/Tyr187); STAT-1 (Tyr701); JNK (Thr183/Tyr185); MEK-1 (Ser212); ATF-2 (Thr69/71); p53 (Ser15); HSP27 (Ser78); c-Jun (Ser73); p38 (Thr180/Tyr182), p70 S6 kinase (Thr412); IkBα (Ser32) (purchased from Millipore).
(§2) The cells were propagated and then seeded into 24-well plates (30.000 cell/well). After 24 hours, the cells were treated with two different concentrations of NGF-receptor agonist G79: 100 ng/ml and 20 μg/ml. After adding G79 into the medium, the cells were collected in the lysis buffer of the kit at the following time points: 30 min, 1 h, 2 h, and 6 h. The assay was performed in this way to assess both time and dose effects comparing the treated samples with the untreated cells used as negative controls (unstimulated SH-SY5Y cells). BDNF was used as positive control at the concentration 20 ng/ml, which is the best working concentration known in literature. In the Luminex plate, each sample was added into a well in duplicate. After adding all the samples, the specific positive and negative controls of phosphorilation, included in the Luminex kit, were added. The assay buffer was also added in duplicate, as a background controls.
(§3) In the circles are the activated factors, while in the grey circles are the tested factors. Its effects of the SY-SY5Y cell line in the phosphorilation of several pathways were assessed using xMAP assay from Luminex. […] The levels of activation are expressed as Median Fluorescence Intensity (MFI).

HSP-27 = assay: Luminex signalling assay in SH-SY5Y; format: cell-based, human; details: G79 100 ng/ml and 20 μg/ml, BDNF 20 ng/ml; 30 min, 1 h, 2 h, 6 h
From the text: as §1, §2, §3

JNK = assay: Luminex signalling assay in SH-SY5Y; format: cell-based, human; details: G79 100 ng/ml and 20 μg/ml, BDNF 20 ng/ml; 30 min, 1 h, 2 h, 6 h
From the text: as §1, §2, §3

STAT-1 = assay: Luminex signalling assay in SH-SY5Y; format: cell-based, human; details: G79 100 ng/ml and 20 μg/ml, BDNF 20 ng/ml; 30 min, 1 h, 2 h, 6 h
From the text: as §1, §2, §3

NSC-34 cells = assay: In vitro model of ALS, serum deprivation of motoneuron-like cells (MTT); format: cell-based, mouse; details: BDNF 20 ng/ml; serum deprivation 48 h
Description: Mouse motoneuron-like cells NCS-34 were cultured in DMEM (Gibco) supplemented with 10% heat inactivated FBS and 1% penicillin/streptomycin. The cell culture was maintained in a humidified atmosphere of 95% air and CO2 at 37° C.
The nutritional deprivation stress in motorneurons was conducted as described previously in Masahito T. et al., J. Neuropathol. Exp. Neurol. 65(8):816-825 (2006). To assess the effect of trophic stress condition on ALS, the presence of apoptosis was investigated using serum deprivation. NSC-34 cells were seeded in 24-well poly-lysinated plates at 30,000 cells/well and preincubated for 24 h in DMEM plus 10% FBS with various doses of G79, G80, and G81 (20 ng/ml, 100 ng/ml, 2 μg/ml, 20 μg/ml, 50 μg/ml), and G-CSF (2 μg/ml) or BDNF (20 ng/ml) which both were used as positive controls (Masahito T. et al., ibid; Elliot J. L., Neurobiology of Disease 6:310-320 (1999)). Then, the medium was removed and replaced with fresh DMEM without FBS. After 48 h, cell viability was assayed by MTT assay, as described previously.

B1: BDNF: brain-derived neurotrophic factor, neurotrophin used as positive control (protein, UniProt P23560 19-247, looked up)
Neurotrophic factor BDNF …: APMKEANIRGQGGLAYPGVRTHGTLESVNGPKAGSRGLTSLADTFEHVIEELLDEDQKVRPNEENNKDADLYTSRVMLSSQVPLEPPLLFLLEEYKNYLDAANMSMRVRRHSDPARRGELSVCDSISEWVTAADKKTAVDMSGGTVTVLEKVPVSKGQLKQYFYETKCNPMGYTKEGCRGIDKRHWNSQCRTTQSYVRALTMDSKKRIGWRFIRIDTSCVCTLTIKRGR
- protection of neuronal cells against MPTP (surviving cells, MTT) (SH-SY5Y cells): significant protection of neuronal cells
- ATF-2 phospho-activation (MFI) compared to unstimulated control (ATF-2): significant ATF-2 activation at 2 h after treatment
- HSP-27 phospho-activation (MFI) compared to unstimulated control (HSP-27): does not activate HSP-27
- JNK phospho-activation (MFI) compared to unstimulated control (JNK): significant JNK activation at 2 h after treatment
- STAT-1 phospho-activation (MFI) compared to unstimulated control (STAT-1): did not activate STAT-1
- cell viability, percentage relative to the control without stress (NSC-34 cells): 80.62±5.2%
